Measured values published in doi:10.1101/2025.05.23.649291 (bioRxiv, 2025).
Positions count from the first letter of the chain named. Where two headings read alike, the source gives them in different places.

What was measured:
[1] = target: T1, rhesus monkey TfR1 fused to EGFP, on CHO-rhTfR1-EGFP cells (Macaca mulatta, UniProt H9Z2T8); experiment: flow cytometry on cells
[2] = target: T2, human TfR1 fused to EGFP, on CHO-hTfR1-EGFP cells (human, UniProt P02786); experiment: flow cytometry on cells
[3] = target: mFc-mouse TfR1 ectodomain (mouse IgG2a Fc fusion) (Mus musculus, UniProt Q62351); experiment: SPR
Sequence of mFc-mouse TfR1 ectodomain (mouse IgG2a Fc fusion) (Q62351 89-763): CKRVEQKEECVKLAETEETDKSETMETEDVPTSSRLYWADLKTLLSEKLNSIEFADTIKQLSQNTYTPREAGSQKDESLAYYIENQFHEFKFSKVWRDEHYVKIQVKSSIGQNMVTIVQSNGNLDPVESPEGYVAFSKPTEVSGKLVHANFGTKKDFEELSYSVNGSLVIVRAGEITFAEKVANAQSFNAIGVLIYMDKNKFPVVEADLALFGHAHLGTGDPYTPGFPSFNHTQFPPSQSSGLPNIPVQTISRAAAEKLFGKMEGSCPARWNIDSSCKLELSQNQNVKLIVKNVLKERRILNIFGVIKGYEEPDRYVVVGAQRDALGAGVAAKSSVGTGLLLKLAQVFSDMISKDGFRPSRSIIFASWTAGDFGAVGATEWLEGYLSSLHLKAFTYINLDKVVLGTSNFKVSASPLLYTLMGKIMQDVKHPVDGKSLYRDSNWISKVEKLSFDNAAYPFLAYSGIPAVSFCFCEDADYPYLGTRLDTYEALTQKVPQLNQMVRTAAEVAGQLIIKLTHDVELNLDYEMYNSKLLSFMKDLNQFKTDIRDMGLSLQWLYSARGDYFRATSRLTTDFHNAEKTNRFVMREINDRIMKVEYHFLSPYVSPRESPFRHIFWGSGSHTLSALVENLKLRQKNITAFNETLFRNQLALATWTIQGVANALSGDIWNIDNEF

[4] = target: T3, mouse TfR1 fused to EGFP, on CHO-mTfR1-EGFP cells (Mus musculus, UniProt Q62351); experiment: immunostaining of cells or tissue
T3 sequence (Q62351 whole entry, the tested form may be a part): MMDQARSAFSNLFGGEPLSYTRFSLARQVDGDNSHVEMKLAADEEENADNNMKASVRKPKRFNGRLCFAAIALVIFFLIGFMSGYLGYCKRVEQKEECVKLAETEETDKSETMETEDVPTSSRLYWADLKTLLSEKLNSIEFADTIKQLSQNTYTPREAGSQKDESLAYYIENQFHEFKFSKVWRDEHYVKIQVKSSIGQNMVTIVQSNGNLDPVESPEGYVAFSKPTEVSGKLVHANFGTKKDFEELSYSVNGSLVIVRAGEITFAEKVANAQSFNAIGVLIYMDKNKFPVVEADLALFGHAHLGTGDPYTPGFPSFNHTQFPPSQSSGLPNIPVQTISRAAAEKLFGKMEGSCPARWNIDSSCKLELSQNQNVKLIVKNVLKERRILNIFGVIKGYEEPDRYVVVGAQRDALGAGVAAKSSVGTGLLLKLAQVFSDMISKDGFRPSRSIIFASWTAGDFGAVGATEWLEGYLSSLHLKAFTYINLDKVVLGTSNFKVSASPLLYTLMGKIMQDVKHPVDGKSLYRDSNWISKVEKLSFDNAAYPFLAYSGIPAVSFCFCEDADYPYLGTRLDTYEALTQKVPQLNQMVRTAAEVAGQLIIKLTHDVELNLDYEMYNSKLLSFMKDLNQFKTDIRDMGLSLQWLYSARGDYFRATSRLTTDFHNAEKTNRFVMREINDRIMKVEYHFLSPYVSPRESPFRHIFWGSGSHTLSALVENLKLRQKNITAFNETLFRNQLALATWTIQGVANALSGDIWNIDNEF

[5] = target: T2, human TfR1 fused to EGFP, on …; experiment: immunostaining of cells or tissue
[6] = target: T1, rhesus monkey TfR1 fused to EGFP, on …; experiment: immunostaining of cells or tissue
[7] = target: T1, rhesus monkey TfR1 fused to EGFP, on …; experiment: immunostaining of cells or tissue; remark: listed apart in the source
[8] = target: T3, mouse TfR1 fused to EGFP, on …; experiment: immunostaining of cells or tissue; remark: listed apart in the source
[9] = target: mFc-human TfR1 ectodomain (mouse IgG2a Fc fusion) (Homo sapiens, UniProt P02786); experiment: SPR
[10] = target: mFc-rhesus monkey TfR1 ectodomain (mouse IgG2a Fc fusion) (Macaca mulatta, UniProt H9Z2T8); experiment: SPR
[11] = target: mouse NTSR1 fused to GFP, on Expi293 cells (mouse, UniProt O88319); experiment: flow cytometry on cells
Sequence of mouse NTSR1 fused to GFP, on Expi293 cells (O88319 whole entry, the tested form may be a part): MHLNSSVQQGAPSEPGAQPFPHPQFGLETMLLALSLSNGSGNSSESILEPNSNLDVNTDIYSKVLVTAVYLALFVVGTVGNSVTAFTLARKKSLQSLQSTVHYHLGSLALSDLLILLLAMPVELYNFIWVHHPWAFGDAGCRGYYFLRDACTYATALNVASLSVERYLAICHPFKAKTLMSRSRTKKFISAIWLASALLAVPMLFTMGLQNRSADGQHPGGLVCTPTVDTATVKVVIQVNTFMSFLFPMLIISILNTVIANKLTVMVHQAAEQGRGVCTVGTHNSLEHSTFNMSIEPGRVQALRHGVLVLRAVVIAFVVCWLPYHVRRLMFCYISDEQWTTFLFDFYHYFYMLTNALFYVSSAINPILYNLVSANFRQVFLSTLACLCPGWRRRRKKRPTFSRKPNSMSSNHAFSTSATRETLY

B1: VHH B8 (VHH)
chain: EVQLVESGGGVVQPGGSLRLSCAASGEIFSINFMRWYRQAPGKQREWVAGFTRDGSTNYPDSAKGRFTISRDNAKNTVYLQIDSLKPEDTAVYYCYMLDTWGQGTQVTVSS
- binding result [1]: binds
- Kd [2]: 2.4 nM
- Kd [3]: ~30 nM

B2: VHH H3 (VHH)
VHH: EVQLVESGGGEVQPGGSLKLSCVASGTDFSINFVRWYRQRPGKQREWVAGFTANGDTNYPDSMKGRFTISRDNAKNTVYLQINSLKSEDTAVYYCYMLDNWGQGTQVTVSS
- binding result [1]: binds
- binding result [4]: binds
- binding result [5]: binds

B3: VHH C5 (VHH)
chain: EVQLVESGGGVVQPGGSLKLSCVASGTDFSINFIRWYRQAPGKQREFVAGFTATGNTNYADSMKGRFTISRDNTKNAVYLQIDSLKPEDTAVYYCYMLDKWGQGTQVTVSS
- Kd [2]: 3.1 nM
- binding result [6]: binds
- Kd [3]: ~110 nM

B4: VHH B6 (VHH)
VHH: EVQLVESGGGLVQPGGSLRLSCTASGGPIEQYPMGWFRRAPGKERELVASISRSGDGTYYAISSVKGRFTISRDNAENTVFLQMNSLKPDDTAVYYCGAGINPTKIWGQGTQVTVSS
- Kd [2]: 2.7 nM
- binding result [7]: no binding (tested: 50 µg/ml)
- binding result [8]: no binding (tested: 50 µg/ml)

B5: C5-NT(8-13) (VHH)
VHH: B3 chain
- Kd [9]: 0.1 nM
- koff [9]: 0.00016 s⁻¹
- kon [9]: 1.36e+06 M⁻¹ s⁻¹

B6: B8V34-NT(8-13) (VHH)
VHH: B1 chain with F29R, S62I
- Kd [9]: 16.9 nM

B7: B8V31 (VHH)
chain: B1 chain with F29K
- binding result [10]: binds
- binding result [9]: binds

B8: B8V40 (VHH)
chain: B1 chain with F29K, A49S
- binding result [10]: binds
- binding result [9]: binds

B9: B8V37 (VHH)
VHH: B1 chain with R71E, D99R
- binding result [9]: binds

B10: C5V30 (VHH)
VHH: B3 chain with F29K
- binding result [9]: binds

B11: B8-NT(8-13) (VHH)
VHH: B1 chain
- binding result [11]: binds

B12: C5neg-NT(8-13) (VHH)
VHH: B3 chain with Y96A, L98A
- binding result [11]: binds
